Assay results taken from PMC6416899.

Molecular target: PtoMYB221 fused to Cub (split-ubiquitin bait) (Populus tomentosa)

Which decrease in LUC activity by 2.56 μg PtoMYB221 effector plasmid against the control without PtoMYB221, with 600 to 1200 ng PtoUBC34 (35.16% with 1200 ng; 72.66% when no exogenous PtoUBC34 was added) does the source give for “full-length PtoUBC34 fused to Nub (split-ubiquitin prey) (from UniProt A0A482P071 1-235) (enzyme)” here?
Its decrease in LUC activity by 2.56 μg PtoMYB221 effector plasmid against the control without PtoMYB221, with 600 to 1200 ng PtoUBC34 (35.16% with 1200 ng; 72.66% when no exogenous PtoUBC34 was added) is 54.8%.
